Measurements published in article PMC9910466 (Proceedings of the National Academy of Sciences of the …, 2022).
Each block holds one molecule with its values, some of them ahead of it.

Tests used:
[1] = molecular target: Ufd1^ΔSIM/Npl4 dimer, biotinylated (S. cerevisiae) (UniProt P53044); experiment: BLI; biotinylated Ufd1/Npl4 dimer (WT Ufd1 or Ufd1^ΔSIM) immobilised on streptavidin biosensors, serial dilution of substrate; 30 °C; PBS, 0.02% Tween-20, 0.1% BSA, 0.1 mM TCEP; 2:1 heterogeneous ligand fit
Npl4 (S. cerevisiae) = molecular target: T1, Npl4 (S. cerevisiae) (S. cerevisiae, UniProt P33755 1-580); experiment: cryo-EM structure; 2 μM Ufd1/Npl4, 2 μM Cdc48, 2.5 μM 1S1U^H-mEOS, on ice with 1 mM ATP in 20 mM HEPES pH 8.0, 150 mM NaCl, 0.1 mM TCEP, 5 mM MgCl2; single-particle; details: both partners purified
T1 construct: Npl4, S. cerevisiae, codon-optimized gene; source: E. coli BL21-CodonPlus (DE3)-RIL, purified with Ufd1 (Ni-NTA, TEV protease, SEC); not shown: His tag (from the Ni-NTA purification)
T1 sequence: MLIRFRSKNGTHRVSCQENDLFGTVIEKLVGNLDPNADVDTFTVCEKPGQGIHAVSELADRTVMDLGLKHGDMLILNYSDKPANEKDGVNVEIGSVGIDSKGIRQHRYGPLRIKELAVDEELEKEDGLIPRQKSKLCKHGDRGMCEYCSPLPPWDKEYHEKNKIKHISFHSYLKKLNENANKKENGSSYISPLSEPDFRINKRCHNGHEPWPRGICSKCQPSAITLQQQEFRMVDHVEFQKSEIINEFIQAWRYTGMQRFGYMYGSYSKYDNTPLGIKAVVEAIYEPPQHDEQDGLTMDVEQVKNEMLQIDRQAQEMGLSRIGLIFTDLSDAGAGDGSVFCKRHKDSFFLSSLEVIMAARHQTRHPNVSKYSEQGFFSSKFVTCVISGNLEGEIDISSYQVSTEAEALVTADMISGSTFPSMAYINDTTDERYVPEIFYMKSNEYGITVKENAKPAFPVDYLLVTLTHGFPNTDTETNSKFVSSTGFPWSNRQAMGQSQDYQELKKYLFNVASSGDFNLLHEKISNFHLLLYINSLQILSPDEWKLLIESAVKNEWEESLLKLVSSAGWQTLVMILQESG

fold binding defect against WT Ufd1/Npl4 [1]: 100 fold
Molecule: 1S1U-mEOS substrate without polyubiquitin chain (one SUMO and one ubiquitin fused end to end with the N-terminus of mEOS) (from UniProt Q12306 1-101; P0CG63 1-76)

binding result (Npl4 (S. cerevisiae)): binds
B1: Ufd1 (S. cerevisiae) (natural protein)
chain: MFSGFSSFGGGNGFVNMPQTFEEFFRCYPIAMMNDRIRKDDANFGGKIFLPPSALSKLSMLNIRYPMLFKLTANETGRVTHGGVLEFIAEEGRVYLPQWMMETLGIQPGSLLQISSTDVPLGQFVKLEPQSVDFLDISDPKAVLENVLRNFSTLTVDDVIEISYNGKTFKIKILEVKPESSSKSICVIETDLVTDFAPPVGYVEPDYKALKAQQDKEKKNSFGKGQVLDPSVLGQGSMSTRIDYAGIANSSRNKLSKFVGQGQNISGKAPKAEPKQDIKDMKITFDGEPAKLDLPEGQLFFGFPMVLPKEDEESAAGSKSSEQNFQGQGISLRKSNKRKTKSDHDSSKSKAPKSPEVIEID
notes: Ufd1, S. cerevisiae, codon-optimized gene; residues 228 to 256 and 281 to 311 resolved in the maps; source: E. coli BL21-CodonPlus (DE3)-RIL, purified with Npl4 (Ni-NTA, TEV protease, SEC); not shown: His tag (from the Ni-NTA purification)
